Experimental data: patent publication US12018066 (TRIAD NATIONAL SECURITY, dated 2024)
Residue numbers refer to the chain shown, from its start. Several values for one entry are separate records, joined by “and”; a condition that tells them apart may be missing. Equal entries are not always repeated. Where two headings read alike, the source gives them in different places.

B1: S01 scFv (scFv)
scFv: EIVMTQSPSSLSASVGDSVTITCQASQDISNYLNWYQQKPGKAPKLLIYDASNLETGVPSRFSGGGSGTDFTLTITSLQPEDIATYYCQQYDNFPPTFGPGTKVDIKSGGSTITSYNVYYTKLSSSDTQVQLVESGGGLVKPGGSLRLSCAASGFTVGSNYMSWVRQAPGKGLEWVSVIYSGGSTYYADSVKGRFTISRDNSKNTLYLQMNSLRAEDTAVYYCARGSSGAWYFDLWGRGTLVTVSS
notes: also called 501
B2: R26 scFv (scFv)
scFv: SYELTQPPSVSVAPGQTATITCGGKNIESKSVHWYQQKPGQAPVLVVSDDTDRASGIPERFSGSNSGGAATLTISRVEAGDEADYYCQVWDSPSDHYVFGPGTKLTVLSGGSTITSYNVYYTKLSSSGTQVQLVESGGGVVQPGRSLRLSCAASGFTFSSYAMHWVRQAPGKGLEWVAVISYDGSNKYYADSVKGRFTISRDKAKNTLYLQMNSLRGEDTAVYYCARELSYYDSSGYLRGDWYFDLWGRGTLVTVSS
B3: F07 IgG1 (antibody, V domains shown)
VH: QVQLVQSGAEVKKPGSSVRVSCKVSGYTFTGYYMHWVRQAPGQGLEWMGIINPSGGSTSYAQKFQGRVTMTRDTSTSTVYMELSSLRSEDTAVYYCARVRVGASDAFDIWGQGTMVTVSS
VL: SYVLTQPPSVSVAPGQTARITCGGNNIGSKSVHWYQQKPGQAPVLVVYDDSDRPSGIPERFSGSNSGNTATLIISRVEAGDEADYYCQVWDSSSVHYVFGTGTKLTVL
B4: H05 IgG1 (antibody, V domains shown)
VH: QVQLVQSGAEVKKPGSSVKVSCKASGGTFSSYAISWVRQAPGQGLEWMGGIIPIFGTANYAQKFQGRVTITADESTSTAYMELSSLRSEDTAVYYCARSIFGVVIISHADGYYYGMDVWGQGTTVTVSS
VL: B3 VL with G24A, S29R, K30I, S66F, I73T, S93Y, V95D, Y97V, V98I, T101G
notes: also called H5; HO5
B5: S01 IgG1 (antibody, V domains shown)
VH: QVQLVESGGGLVKPGGSLRLSCAASGFTVGSNYMSWVRQAPGKGLEWVSVIYSGGSTYYADSVKGRFTISRDNSKNTLYLQMNSLRAEDTAVYYCARGSSGAWYFDLWGRGTLVTVSS
VL: EIVMTQSPSSLSASVGDSVTITCQASQDISNYLNWYQQKPGKAPKLLIYDASNLETGVPSRFSGGGSGTDFTLTITSLQPEDIATYYCQQYDNFPPTFGPGTKVDIK
notes: also called 501
B6: G07 scFv (scFv)
scFv: QSVLIQPPSASGTPGQRVTISCSGSNSNFGSNSVSWYQQRPGTAPKLLIEGNNQRPSGVPERFSGSKSGTSASLAISGLQSEDEAEYSCASWDDSLNAFVFGPGTKLTVLSGGSAITSYNVYYTKLSSSGTQVQLVQSGAEVKKPGESLKISCKGSGYSFTSYWIGWVRQMPGKGLEWMGIIYPGDSDIRYSPSFQGQVTISADKSFSSAYLQWSSLKASDTAMYYCARLGATGAFDIWGQGTTVTVSS
B7: H05 scFv (scFv)
scFv: SYVLTQPPSVSVAPGQTARITCGANNIGRISVHWYQQKPGQAPVLVVYDDSDRPSGIPERFSGSNFGNTATLTISRVEAGDEADYYCQVWDSYSDHVIFGGGTKLTVLSGGSTITSYNVYYTKLSSSGTQVQLVQSGAEVKKPGSSVKVSCKASGGTFSSYAISWVRQAPGQGLEWMGGIIPIFGTANYAQKFQGRVTITADESTSTAYMELSSLRSEDTAVYYCARSIFGVVIISHADGYYYGMDVWGQGTTVTVSS
notes: also called H5
B8: R04 scFv (scFv)
scFv: EIVMTQSPSSLSASVGDRVTITCQASQDISNYLNWCQQKPGKAPKLLIYDASNLETGVPSRFSGSGSGTGFTFTISSLQPEDFATYYCQQSYSTPYTFGQGTKVEIKSGGSTITSYNVNYTKLSSSGAQVQLQQSGPGLVKSSQTLSLTCAISGDSVSSNGAAWHWIRQSPSRGLEWLGRTYYRSGWYNDYAVSVKSRITINQDTSKNQFSLQLNSVTPEDTAVYFCAREGGGGRMDVWSQGTTVTVSS

Tests used:
[1] = molecular target: T1, SARS-CoV-2 spike protein receptor binding domain (RBD2) (SARS-CoV-2, UniProt P0DTC2 319-537); test: flow cytometry, yeast-displayed scFv, titration of biotinylated antigen
[2] = molecular target: T1, SARS-CoV-2 spike protein receptor …
[3] = molecular target: T1, SARS-CoV-2 spike protein receptor …; test: flow cytometry, yeast-displayed scFv
[4] = molecular target: T1, SARS-CoV-2 spike protein receptor …; test: SPR sandwich binning, ligand Anti-His
[5] = molecular target: T1, SARS-CoV-2 spike protein receptor …; test: SPR
[6] = molecular target: T2, human ACE2 receptor on HEK cells (Human ACE2 293 cell line) (human, UniProt Q9BYF1 18-805); test: fluorescence microscopy, PE-labelled IgG on HEK-ACE2 cells without RBD2-sfGFP
T2 construct: whole, on cells; also called HEK-ACE2; ACE2 293 cells
T2 sequence (Q9BYF1 18-805): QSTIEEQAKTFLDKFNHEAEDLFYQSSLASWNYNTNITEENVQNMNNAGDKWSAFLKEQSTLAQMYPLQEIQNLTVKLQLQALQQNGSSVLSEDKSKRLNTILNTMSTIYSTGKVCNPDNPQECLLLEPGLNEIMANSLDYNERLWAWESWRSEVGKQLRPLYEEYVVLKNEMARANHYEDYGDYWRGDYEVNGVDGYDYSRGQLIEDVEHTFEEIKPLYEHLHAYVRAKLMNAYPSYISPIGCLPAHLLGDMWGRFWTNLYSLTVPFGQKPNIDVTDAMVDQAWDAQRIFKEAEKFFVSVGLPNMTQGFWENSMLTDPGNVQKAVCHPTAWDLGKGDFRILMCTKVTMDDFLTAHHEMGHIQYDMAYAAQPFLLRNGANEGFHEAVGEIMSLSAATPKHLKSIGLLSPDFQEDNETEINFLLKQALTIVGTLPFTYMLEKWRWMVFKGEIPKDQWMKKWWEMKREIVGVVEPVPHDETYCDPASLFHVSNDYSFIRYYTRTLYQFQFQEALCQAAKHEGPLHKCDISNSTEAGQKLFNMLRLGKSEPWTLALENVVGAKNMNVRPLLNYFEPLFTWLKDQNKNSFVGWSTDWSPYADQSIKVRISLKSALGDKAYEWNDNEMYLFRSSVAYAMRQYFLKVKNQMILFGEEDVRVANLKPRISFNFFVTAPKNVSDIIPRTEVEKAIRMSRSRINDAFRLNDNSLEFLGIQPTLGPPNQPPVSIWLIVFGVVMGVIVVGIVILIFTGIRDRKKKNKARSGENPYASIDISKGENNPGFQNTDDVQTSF

[7] = molecular target: T1, SARS-CoV-2 spike protein receptor …; test: SPR sandwich binning, ligand G07
[8] = molecular target: T1, SARS-CoV-2 spike protein receptor …; test: SPR sandwich binning, ligand CR3022
[9] = molecular target: T1, SARS-CoV-2 spike protein receptor …; test: SPR sandwich binning, ligand H05
[10] = molecular target: T1, SARS-CoV-2 spike protein receptor …; remark: listed apart in the source
[11] = molecular target: T1, SARS-CoV-2 spike protein receptor …; test: SPR, immobilized antibody, RBD injected, 1:1 fit
[12] = molecular target: SARS-CoV-2 spike protein on whole SARS-CoV-2 virus (SARS-CoV-2, UniProt P0DTC2 14-1273); test: cell-based or functional assay
[13] = molecular target: T1, SARS-CoV-2 spike protein receptor …; test: SPR sandwich binning, ligand NN54
[14] = molecular target: T1, SARS-CoV-2 spike protein receptor …; test: SPR sandwich binning, ligand S01
[15] = molecular target: T1, SARS-CoV-2 spike protein receptor …; test: SPR sandwich binning, ligand H01
[16] = molecular target: T1, SARS-CoV-2 spike protein receptor …; test: SPR sandwich binning, ligand E01
[17] = molecular target: T1, SARS-CoV-2 spike protein receptor …; test: SPR sandwich binning, ligand B04
[18] = molecular target: T1, SARS-CoV-2 spike protein receptor …; test: SPR sandwich binning, ligand F07
[19] = molecular target: T1, SARS-CoV-2 spike protein receptor …; test: SPR sandwich binning, ligand E08
[20] = molecular target: T1, SARS-CoV-2 spike protein receptor …; remark: listed apart in the source
[21] = molecular target: T1, SARS-CoV-2 spike protein receptor …; remark: listed apart in the source
[22] = molecular target: T1, SARS-CoV-2 spike protein receptor …; test: flow cytometry, yeast-expressed scFv

Row | Binder | Kd [1] [nM] | Kd [2] [nM] | Kd [3] [nM] | normalized analyte binding to RBD2 held by the immobilized ligand [4] | Kd [5] [nM] | normalized analyte binding to RBD2 held by the immobilized ligand [8] | normalized analyte binding to RBD2 held by the immobilized ligand [9] | Kd [11] [nM] | normalized analyte binding to RBD2 held by the immobilized ligand [14] | normalized analyte binding to RBD2 held by the immobilized ligand [15] | normalized analyte binding to RBD2 held by the immobilized ligand [16] | normalized analyte binding to RBD2 held by the immobilized ligand [17] | normalized analyte binding to RBD2 held by the immobilized ligand [18] | normalized analyte binding to RBD2 held by the immobilized ligand [19] | other results
1 | B1 | 44.1 | 44.8 | 44.1 | – | – | – | – | – | – | – | – | – | – | – | –
2 | B2 | 65.3 | 65.3 | – | – | – | – | – | – | – | – | – | – | – | – | –
3 | B3 | – | – | – | 1.48 | 300 | 0.9 | 1.39 | 300 | 1.28 | 0.1 | 1.9 | -0.05 | 0.07 | 1.78 | binding result [6]: no binding (tested: 1 ug/mL); normalized analyte binding to RBD2 held by the immobilized ligand [7]: 0.14; Kd [10]: 300 nM; NT50 (nM), half neutralization titer [12]: 45.2 nM; Nmax (%), neutralization maximum [12]: 74.7%; normalized analyte binding to RBD2 held by the immobilized ligand [13]: 2.34
4 | B4 | – | – | – | 1.35 | 51 | -0.15 | -0.17 | 51 | 1.73 | -0.1 | 1.81 | 1.75 | 0.9 | -0.12 | normalized analyte binding to RBD2 held by the immobilized ligand [7]: 0.9; Kd [10]: 46 nM
5 | B5 | – | – | – | 1 | 170 | 1.39 | 1.2 | 170 | -0.03 | -0.03 | -0.13 | 0.06 | 0.48 | 1.79 | binding result [6]: no binding (tested: 1 ug/mL); Kd [20]: 174 nM; NT50 (nM), half neutralization titer [12]: 14.6 nM; Nmax (%), neutralization maximum [12]: 106%; normalized analyte binding to RBD2 held by the immobilized ligand [13]: 1.64
6 | B6 | 60.3 | – | 60.3 | – | – | – | – | – | – | – | – | – | – | – | Kd [21]: 60.4 nM
7 | B7 | 16.7 | – | 16.7 | – | – | – | – | – | – | – | – | – | – | – | Kd [21]: 16.7 nM
8 | B8 | 293 | 293 | 293 | – | – | – | – | – | – | – | – | – | – | – | Kd [22]: > 280 nM and < 421 nM and 423 nM
